Measurements from patent US20160355602A1 (Astellas, published 2016).
Values joined by “and” are separate entries in the source; they are usually repeats but may differ in a detail not shown here. Equal entries are not always repeated.

How the values were obtained:
[1] = target: T1, human TLR4/MD2 protein (R&D Systems, 3146-TM/CF) (human, UniProt O00206 24-631; Q9Y6Y9 17-160, limits assumed); experiment: ELISA, human TLR4/MD2 protein immobilized on plate, detection with anti-human IgG-HRP
T1 construct: Bought recombinant complex; also called human TLR4 and MD2 complex
T1 sequence (O00206 24-631 limits assumed, chain 1 of 2): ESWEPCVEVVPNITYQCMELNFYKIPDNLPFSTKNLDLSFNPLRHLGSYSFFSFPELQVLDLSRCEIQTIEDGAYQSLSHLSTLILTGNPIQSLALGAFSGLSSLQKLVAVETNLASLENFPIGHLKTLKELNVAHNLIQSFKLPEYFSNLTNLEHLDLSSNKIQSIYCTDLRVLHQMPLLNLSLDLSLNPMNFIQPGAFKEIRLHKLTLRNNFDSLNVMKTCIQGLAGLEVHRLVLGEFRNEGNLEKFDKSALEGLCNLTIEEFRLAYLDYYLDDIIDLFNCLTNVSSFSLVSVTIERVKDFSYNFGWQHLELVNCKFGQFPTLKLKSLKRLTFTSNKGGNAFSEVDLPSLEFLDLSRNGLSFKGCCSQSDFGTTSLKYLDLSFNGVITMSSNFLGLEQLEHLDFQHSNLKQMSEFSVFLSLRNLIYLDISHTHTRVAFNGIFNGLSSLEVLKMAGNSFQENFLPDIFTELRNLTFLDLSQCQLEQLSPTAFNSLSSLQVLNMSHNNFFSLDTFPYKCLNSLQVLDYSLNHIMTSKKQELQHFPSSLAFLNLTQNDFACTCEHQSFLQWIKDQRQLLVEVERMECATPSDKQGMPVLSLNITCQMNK
T1 sequence (Q9Y6Y9 17-160 limits assumed, chain 2 of 2): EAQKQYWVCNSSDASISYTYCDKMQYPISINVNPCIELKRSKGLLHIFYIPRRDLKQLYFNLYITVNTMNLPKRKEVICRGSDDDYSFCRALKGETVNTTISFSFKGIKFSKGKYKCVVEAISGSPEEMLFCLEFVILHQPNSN
Procedure: (§1) In order to evaluate the binding activity of each of two bispecific antibodies prepared in Example 8 for human TLR2 and human TLR4, ELISA was carried out using a human TLR2 protein and a human TLR4/MD2 protein. 15 μL/well of a human TLR2 protein (R&D Systems, 2616-TR-050) diluted to a concentration of 10 μg/mL in PBS (Life Technologies, 10010-023) was added to a MaxiSorp 384-well plate Clear (Thermo Fisher Scientific Inc.), followed by immobilization at room temperature for 1 hour. Similarly, 15 μL/well of a human TLR4/MD2 protein (R&D Systems, 3146-TM/CF) was added at 10 μg/mL, followed by immobilization at room temperature for 1 hour. After 1 hour, the wells were washed three times with a washing solution (0.05% Tween-20-containing Tris-buffered saline (TBS)), and 100 μL/well of Blocking One (NACALAI TESQUE, INC., 03953-95) was added, followed by blocking at room temperature for 1 hour. The wells were washed again three times with a washing solution, 15 μL/well of two bispecific antibodies prepared in Example 8 was added to the well on which the human TLR2 protein was immobilized and the well on which the human TLR4/MD2 protein was immobilized. […] An absorbance at 450 nm was measured by using Safire2 (TECAN), and an EC50 value of each antibody for the human TLR2 protein and the human TLR4/MD2 protein was calculated.

[2] = target: T2, human TLR2 endogenously expressed on cells (THP1-xBlue cells; normal human peripheral blood mononuclear cells) (human, UniProt O60603 21-784); experiment: cell-based or functional assay
T2 sequence (O60603 21-784): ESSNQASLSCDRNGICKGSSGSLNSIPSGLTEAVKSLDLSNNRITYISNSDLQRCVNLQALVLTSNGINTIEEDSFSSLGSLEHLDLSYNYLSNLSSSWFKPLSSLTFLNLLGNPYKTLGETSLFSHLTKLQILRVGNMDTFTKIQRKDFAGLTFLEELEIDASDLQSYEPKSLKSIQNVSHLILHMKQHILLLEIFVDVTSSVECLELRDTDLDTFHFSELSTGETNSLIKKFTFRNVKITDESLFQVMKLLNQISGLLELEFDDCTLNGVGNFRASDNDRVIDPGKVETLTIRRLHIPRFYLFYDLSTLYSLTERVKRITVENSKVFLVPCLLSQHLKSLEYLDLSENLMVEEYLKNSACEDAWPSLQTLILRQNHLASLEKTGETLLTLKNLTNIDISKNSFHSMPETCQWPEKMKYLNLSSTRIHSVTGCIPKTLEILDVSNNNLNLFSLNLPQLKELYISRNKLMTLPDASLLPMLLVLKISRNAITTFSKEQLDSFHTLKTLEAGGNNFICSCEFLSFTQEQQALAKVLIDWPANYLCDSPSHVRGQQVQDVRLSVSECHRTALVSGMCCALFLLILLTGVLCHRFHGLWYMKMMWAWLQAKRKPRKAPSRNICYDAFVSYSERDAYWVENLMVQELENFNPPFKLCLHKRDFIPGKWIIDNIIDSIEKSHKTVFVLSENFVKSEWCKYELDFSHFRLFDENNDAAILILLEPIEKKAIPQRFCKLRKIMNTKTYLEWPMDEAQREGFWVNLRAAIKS

[3] = target: human TLR4/MD2 endogenously expressed on normal human peripheral blood mononuclear cells (human, UniProt O00206 24-839; Q9Y6Y9 19-160); experiment: cell-based or functional assay
Sequence of human TLR4/MD2 endogenously expressed on normal human peripheral blood mononuclear cells (O00206 24-839, chain 1 of 2): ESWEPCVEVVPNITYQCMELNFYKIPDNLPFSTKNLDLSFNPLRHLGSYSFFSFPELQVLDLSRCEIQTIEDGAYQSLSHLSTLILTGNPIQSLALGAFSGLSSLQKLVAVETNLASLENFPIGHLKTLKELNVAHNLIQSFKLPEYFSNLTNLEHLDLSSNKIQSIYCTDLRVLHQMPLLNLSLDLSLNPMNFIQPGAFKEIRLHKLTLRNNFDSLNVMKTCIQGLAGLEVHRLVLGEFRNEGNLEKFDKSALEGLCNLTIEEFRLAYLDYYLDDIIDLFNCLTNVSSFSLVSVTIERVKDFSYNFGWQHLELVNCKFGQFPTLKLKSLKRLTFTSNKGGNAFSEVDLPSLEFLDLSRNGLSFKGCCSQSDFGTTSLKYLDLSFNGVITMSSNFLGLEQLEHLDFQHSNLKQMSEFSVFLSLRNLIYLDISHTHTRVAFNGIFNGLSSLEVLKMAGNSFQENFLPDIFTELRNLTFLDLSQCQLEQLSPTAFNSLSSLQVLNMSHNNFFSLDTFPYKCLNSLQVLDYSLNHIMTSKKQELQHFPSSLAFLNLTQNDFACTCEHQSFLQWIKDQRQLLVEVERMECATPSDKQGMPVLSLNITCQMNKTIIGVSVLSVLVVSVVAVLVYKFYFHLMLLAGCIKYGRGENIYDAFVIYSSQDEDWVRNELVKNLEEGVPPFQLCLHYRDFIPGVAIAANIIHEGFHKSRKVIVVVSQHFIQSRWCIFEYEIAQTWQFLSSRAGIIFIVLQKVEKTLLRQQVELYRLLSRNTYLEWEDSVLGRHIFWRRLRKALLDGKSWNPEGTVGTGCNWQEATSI
Sequence of human TLR4/MD2 endogenously expressed on normal human peripheral blood mononuclear cells (Q9Y6Y9 19-160, chain 2 of 2): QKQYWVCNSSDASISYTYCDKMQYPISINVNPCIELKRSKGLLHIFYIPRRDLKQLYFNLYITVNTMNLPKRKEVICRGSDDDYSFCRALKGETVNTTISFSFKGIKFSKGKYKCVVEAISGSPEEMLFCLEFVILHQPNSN

[4] = target: T3, human TLR2 protein (R&D Systems, 2616-TR-050) (human, UniProt O60603 21-590, limits assumed); experiment: ELISA, human TLR2 protein immobilized on plate, detection with anti-human IgG-HRP
T3 construct: Bought recombinant protein
T3 sequence (O60603 21-590 limits assumed): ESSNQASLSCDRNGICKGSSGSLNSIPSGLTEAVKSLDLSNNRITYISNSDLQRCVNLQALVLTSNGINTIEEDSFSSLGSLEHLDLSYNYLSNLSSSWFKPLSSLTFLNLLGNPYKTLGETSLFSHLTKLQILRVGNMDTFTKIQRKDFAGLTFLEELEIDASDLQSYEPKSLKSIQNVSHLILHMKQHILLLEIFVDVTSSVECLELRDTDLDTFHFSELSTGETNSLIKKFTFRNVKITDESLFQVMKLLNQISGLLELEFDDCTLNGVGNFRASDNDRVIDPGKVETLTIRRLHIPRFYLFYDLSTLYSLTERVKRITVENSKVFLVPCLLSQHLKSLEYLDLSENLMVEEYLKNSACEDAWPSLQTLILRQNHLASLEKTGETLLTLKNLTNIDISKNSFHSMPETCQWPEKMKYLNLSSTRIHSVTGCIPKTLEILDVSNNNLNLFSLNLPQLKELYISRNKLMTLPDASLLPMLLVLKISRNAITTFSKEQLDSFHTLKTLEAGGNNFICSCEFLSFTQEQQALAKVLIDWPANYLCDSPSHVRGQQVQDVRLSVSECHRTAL
Procedure: as §1

[5] = target: T3, human TLR2 protein (R&D Systems, …); experiment: SPR (Biacore T200), human TLR2 protein captured by anti-His IgG on CM5 chip, antibody at 200 nM as analyte, bivalent analyte model
Procedure: To evaluate a binding activity of the fully human 31-5F5-2F3.m1 prepared in Example 4 for human TLR2, an SPR analysis was carried out.
In the SPR analysis, Biacore T200 (GE Healthcare Japan) was used to carry out analysis. An Anti-His IgG (enclosed in His Capture Kit) was immobilized on a sensor chip CM5 (GE Healthcare Japan, BR-1005-30) using a His Capture Kit (GE Healthcare Japan, 28-9950-56) and Amine Coupling Kit (GE Healthcare Japan, BR-1000-50). Flow path No. 1 is referred to as a reference, onto which the human TLR2 protein was not attached. Onto each of other flow paths (No. 2, No. 3, and No. 4), a human TLR2 protein (R&D Systems, 2616-TR-050) diluted to 0.66 μg/mL in HBS-EP+ buffer (GE Healthcare Japan, BR-1006-69) was added at a flow rate of 5 μL/minute for 2 minutes and then immobilized. Thereafter, a solution of fully human 31-5F5-2F3.m1 diluted to 200 nM in HBS-EP+buffer was added at a flow rate of 50 μL/minute for 2 minutes, and the fully human antibody-human TLR2 binding was measured. Next, HBS-EP+buffer was added at a flow rate of 50 μL/minute for 5 minutes and the dissociation of the fully human antibody and human TLR2 was measured. Bivalent analyte model and the Rmax were analyzed by Fit local to calculate the association rate constant (ka) and dissociation rate constant (kd), and the association-dissociation constant (KD) was calculated by dividing kd by ka.

[6] = target: T2, human TLR2 endogenously expressed on …; experiment: cell-based or functional assay; remark: listed apart in the source

| EC50 [1] [nM] | EC50 [4] [nM] | Kd [5] [nM] | IC50 value against Pam2CSK4-induced AP production in THP1-xBlue cells [6] | Binder | IC50 value, killed Pseudomonas aeruginosa-induced TNFα production on normal human peripheral blood mononuclear cells [2] [nM] | IC50 value, killed Pseudomonas aeruginosa-induced TNFα production on normal human peripheral blood mononuclear cells [3] [nM] |
| --- | --- | --- | --- | --- | --- | --- |
| 0.522 | 0.21 | – | – | fully human ICU-1-Igγ1-LAsh (bispecific antibody, human IgG1, kappa, L234A L235A, As fully human ICU-1-Igγ1, but with L234A, L235A and I253A (EU index) in the human Igγ1 constant region; also called IgG(TLR2)-scFv(TLR4) bispecific antibody with L234A, L235A and I253A) heavy: not shown light: DVQMTQSPSSLSASVGDRVTITCRSSQSLVFSDGNTYLNWFQQKPGKAPKRLIYKVSNRDSGVPSRFSGSGSGTDFTLTISSLQPEDFATYYCMQGAHWPLTFGQGTKVEIKRTVAAPSVFIFPPSDEQLKSGTASVVCLLNNFYPREAKVQWKVDNALQSGNSQESVTEQDSKDSTYSLSSTLTLSKADYEKHKVYACEVTHQGLSSPVTKSFNRGEC | 0.0172 | 0.0172 |
| 0.493 | 0.15 | – | – | fully human ICU-1-Igγ1 (bispecific antibody, human IgG1, kappa, Tetravalent IgG-scFv: an anti-TLR4 scFv is joined by a GS linker to the C terminal of each heavy chain of the anti-TLR2 IgG1; also called IgG(TLR2)-scFv(TLR4) bispecific antibody) heavy: not shown light: DVQMTQSPSSLSASVGDRVTITCRSSQSLVFSDGNTYLNWFQQKPGKAPKRLIYKVSNRDSGVPSRFSGSGSGTDFTLTISSLQPEDFATYYCMQGAHWPLTFGQGTKVEIKRTVAAPSVFIFPPSDEQLKSGTASVVCLLNNFYPREAKVQWKVDNALQSGNSQESVTEQDSKDSTYSLSSTLTLSKADYEKHKVYACEVTHQGLSSPVTKSFNRGEC | 0.04 | 0.04 |
| – | – | 0.0885 | 0.0977 nM and 0.13 nM | fully human 31-5F5-2F3.m1 (antibody, human IgG1, kappa, V domains shown, Human Igγ1 / human kappa constant regions; also called fully human anti-human TLR2 antibody; fully human antibody of 31-5F5-2F3.m1) VH: EVQLVESGGGLVQPGGSLRLSCAASGFTFSNYAMSWVRQAPGKGLEWVAAIYGRGGYTNYADSVKGRFTISRDNSKNTLYLQMNSLRAEDTAVYYCAKEGGGYRDYFDYWGQGTLVTVSS VL: DVQMTQSPSSLSASVGDRVTITCRSSQSLVFSDGNTYLNWFQQKPGKAPKRLIYKVSNRDSGVPSRFSGSGSGTDFTLTISSLQPEDFATYYCMQGAHWPLTFGQGTKVEIKR | – | – |
